The data set can be described thus: protease stability score; higher = more stable; yeast display proteolysis, trypsin and chymotrypsin.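 Also: log10 excess protease needed over predicted unfolded state with 0 meaning unfolded.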

The source of these data is the NTF2 design screens of Basanta et al. (2020).

Turning to “DHENKKRVEEFLKALERNDPERLNHLMDPNVNIIVGDQRFHGREDAARNMAHEQKEQRFEVEDYRISVHGDDVRVEMIVQAEINGRPFRFTLIVYARIHDGRIQTIEFRIDEDEKRRMDQ”, the protease stability score was determined as 0.895. For “DHEQLKNLKELLEAVQTGDEDQVKELMDPNAKFEYGNKSFHGRESMESYLKKLENEARVTVRSVTVRVSNGTISADVHLIFEVNGQPITVDAKFEAELHNGRVKHLYVRMPEETMKEIQG” the value was -0.312. For “DHEREAKHFVDDWVRALRTGDSKTIEELMDPNVTLRVGDQKLHGRSQNSDQVRRWKERVDTIDVKVRSINKTGDHMRVHVDVVMDINGEKDNKELVINFDKHNGRLIVKHASYG” the value was -0.113; for “DHERILQELLDRAVKMLNTGNEEHARKLAPPHARMVVGDKTIHGMENIAHEWQKVQDRVDHVEARVHSMSVDGDKFVVIVEVTLDINGRKQTQVVTFIAVKNNGQVYVKQINIS”, -0.162. In the case of “DHERLKEFIKIQQENNPDQLRNQMDPNVKARVGDKEFKGREQVVKWLKRIMDQADHIHYDDLKSQGNSVTINAVVEVNGKSFQYNMVVEFHNGRIREIKVEVRNHRVKEILERIEG” it was 1.62; in that of “DHERLRKLAKDFVKILKHGDPDRMRELVDKDVRVQIGDKEVHGREKVDEMVENIRHRADHIDFTSFHASNGRVTVDVVVNVDGKNTRVTWRIVMSNGRVKMIQVTDG”, 1.82. For the sequence “DHERVKDHATDLAKILRQNNERELKKLADKDVHFQIGDKTYHGREKFEEWVHELINTVDHIRITDFDVDGDRVRIDADFDINGKTVRVVIVVKLKNGKIKSQKVQFRDKDLQRKFNS”, the protease stability score is -0.152. In the case of “DHETHMEKFFEDQQKIRNKGDEDKVRNLFDPNARATYGDKTYQGREQIDKFENDVLRRVDHVNVQLRNVRVHNGRADFDARVVFKVNGRHERNHIRITVEINNGRIVIQSVHYG” it was 0.141; in that of “DHETQNDLATEIVRVYKHGNPDDWSKLVDPNARVVYGDKEIHGREDAMSFMKKLRNQADSIKVKDYKVKNGRVDVVVIIVVNGRHATLQFTIQFHNGKATDVKFDPKQWHELQK”, 1.28.

Sequence “DHEVAKTMMEEWQKALENGDDKKLKELYDPDGEWEADDEQDQGTEVIEKLMEKVKKQGLKFQVRKAKVEGDKFTVVYDLHVGNKTATFEVEVHVEGGRIKKVKAKADEEAKKLITEG” came in with a protease stability score of 1.98. In the case of “DHEVHKLFDDFLHAEETGNEEQLTELVDENAQIQVGDKEVHGRDHINKMHADLRRTMDLKLKDYKVNNNGNNVDVDMKYINEDNGKPSKVRMRAIYTFQNGRIKNVHQNRDQ” it was -0.366; in that of “DHHARTQAEHLLEALRNGNEDQLMKLIDPNARFRYGDKEVHGSEQFREQVHTLKREIRMDVKEYRFTVEGNRLVVKVTAILDTNGKPDTRDVDNHAIVHNGKIKQFTVDNKS”, -0.134; in that of “DHHDRKLFKHLITALRDGDEDKVKKNVDPNVKIDIGDTTWNGREQWAKDVREKREEMRVDIKLKRLTASNGRVTAKLRVRNKHDGRPHQHEFTVEFRRSNGRWKEIHVDDDK”, -0.008. For “DHHHARELLTRVIRALITGDEKKVADQIDPNAEFQYGDKTFHGRDQVRRFVKEWKKHVDHVELKTYDARGDKAKAIFVVDHNGHKKQVVLQLKVENGRVKSIRITDG” the value was 1.74.

In the case of “DHKAVEMVEQMWKNLNEGDFKKFTRLIDKDVKYVYGDRRVEGREELVNRFHRKMREMRFQIVRMSLTDHGDKVVVNYTVQFNKNGRPDRKVQRLLVKVENGTIKELRVQEHQ”, the protease stability score was determined as 1.62.

On to “DHKDQSKMVKDLNRVMQHGDSKQMRSMVDENAEVQYGDNQVHGRDQIREMEKRIRRRVDKVKFDSVDVEGNKVRIQYVVNVNGQNIEQVLHVTFKNGKIKNQEYRVRDPRLEKQFKS”, for which the protease stability score worked out at 0.237.

Sequence “DHKEARDVAQTMMHLLKHGDFEQIVRNADPNAHFVVGDKEYHGRDNLRKVLKRLHDQVDHISFRTYKVDEDTAKLDATVQINGRNYRMDVLVHFHNGRIKDLNIKVTDEDTQREADK” gave a protease stability score of 2.08.

“DHKEETKKKDEARRVLETNDPRKKLKLMDPNARANVGDKRYHGREELKRRADEERKRVDHAEVKRVEANGDHIIVDFVFVVNGKTKRNSLNINMHNGRVKEVNVESR”: the protease stability score was -0.143. In the case of “DHKEHAEKFAQQLDEAHKKNDPRQFLRLMDKDVRVSVGDKTVHGKENIRKQLEDLTKQADSIEFKVKSIRVTGDKVRLEFEVVYRHNGRHSRQTVVMYLKLHNGRAVIKSVQVK” it was 0.159; in that of “DHKELKKYLEQVEKNDFDKLKKNVDEDARVNYGNKTWHGREQVQKYWDDLKKRIDHFDVTHMTVKGDKLHYIVRMNVNGQNFEHKVVIEIQNGKIKQVDARYRDEKQKEKLEKVAD”, 0.868. In the case of “DHKHLQEQARRLVDALVTGDPEEAANLADPNARARIGDKTIHGREQFRNAMQRFSNQADHVQVDHFTVQGDKVQVKMSINVNGQSFDVVMVARMDNGHIRHIRFDPDQIRQVQG” it was 0.052; in that of “DHKLHHQLHRLIKALQTGDPDKIRELVDPNVEFVVGEKRYKGREDYVTDFKERLDHIRLDNDVRDVEVHGNKMRANIQTEVQDDGQPRTYQVRLDASAHNGKVKSLKVDKKP”, -0.059; in that of “DHKQEATKNLKKFEDVMKTNDPEKAKNLADENVRVQVGDKTVHGKEKMVSTMLEEMRKVDHFSVHLQEVSFHGDKLNLSYEFVLNQNGKERKDVRVFHAANHNGRFLVEELHQG”, -0.322.

In the case of “DHNDHARRLFEQWVQAIEHNDPDQIRKNLPPNVKVTIGDKTISGRENVVRTVKRELHRVDHIRIQLDHVEVQGDKIVLRANVRQDHNGQNRHFTLRLVANTFNGREQFIDIQLN”, the protease stability score is -0.121.

In turn, “DHQASEKLSQLWKALNTGNPEQFSKNADPHVRHHVGDTSIQGREQFNEQIKREQKEMRVQIQVQSIHVRGDKIRVRAVYTFHINGQPRKDTFVAKFVVKNGRIKKASIRIDPRKVKERNS” displayed a protease stability score of 0.11. In the case of “DHQDARKVRKNFEDNNFESFKSMFDENAEVRVGDKELHGKENIRDQIRKEKEQIDHVQYRSFHVQGEKVDLKYEFQVNGRHIDVRASAELKNGRIKTHSVEVTTEEDKKLLKEVLQ” it was -0.271; in that of “DHQELAEKWFRTFVTNQERGDEESLVKMADKDVRLHIGDKTIHGREQFHHWIQELRRRVDHQSMTVRHIDVQGDKIRIDAEAVFNVNGRNDKFKIDIEAEIQGDKVVLKRIIFN”, 1.63. For “DHQESAHRLHNTLKTIWSENDPDKYSELIDENVHVDVGDKKFRGRDEAKKLAEHIMRRADHIEIRLTSIDVHGNTIRIVVELNFNHDGTSSSVTVVVVLENHNGNFRVKKIRES”, the protease stability score worked out at 0.017. Take “DHQVVRSFMDVLETGDWDKLKDLVDPNAKMFYGNKDLTGRDAQTHFSEVMKRRVDEIKIDSYDMKGDSAWADFVLVFNGVEIRFILRVQFHNGNVISMRFEVTDPKQKTQLDRAAS”: the protease stability score was 0.714. In the case of “DHRAEEAFRRWEEALKTGDPDQAKEQVDPNARFEYGDESIRGMDNVQKWLRTQMEKQRIDVKVKDVKTRPGHVEISAHVVWEHNGTPNSATFVQQNTATGDDVKHVKVQEHK” it was -0.27; in that of “DHRAFELAKNILEAIRTNDPDTVKHQLDKNATLRYGEFEVHGREDASRFVETLIRKMRVEFDIKDYHVHGDSAVMDADVKVERNGRPDTRKLNVNVNVHNGKMSHIVFELRG”, 0.693; in that of “DHRAIHLVRENLDARRHNDSKKAREMADKDATFHIGDRFIHGMDSFVKTLTDENREMRIEIERMSYNDRPGRVEVKQDVRENHNGSPKRFTYHAEMHVQGDHVRTQTEHRTD”, -0.281. In the case of “DHRALSQVEQFMNALQQGDEKRLMELADPNVKIIIGDKDVHGREEWDRQVHKRRHEIQYEVRRVKMHVNGDTVHVKIRAVATINGKPFEVEYTANFKIDNGHITHIDWQLPDEYLKRVKS” it was 0.062. In the case of “DHRAVEVIKEMFKALQTGDERRIVEMADKDATATVGDKRVHGMKEAAHDIATEFNEMRFQLSIKRVQHSGNNVKADVEATFHHNGKPRKVQVVIVLRLHNGKVQEMSIRNDG” it was 1.17.
